Test results taken from patent US20250289899A1 (Genmab, published 2025).

Key:
[1] = biological target: T1, human C1q (from normal human serum) (human, UniProt P02745 23-245; P02746 28-253; P02747 29-245); assay: flow cytometry, C1q (20% normal human serum) on human T cells pre-incubated with the antibody, FITC rabbit anti-human C1q, median MFI FITC; antibody concentration varied
T1 construct: 20% normal human serum was the source of C1q
Description: The P329R mutation was previously described to reduce interaction of IgG1 antibodies with C1q and FcgR (Overdijk et al, Molecular Cancer Therapeutics 2020). The effect of the P329R mutation on C1q binding of IgG1-CD27-A comprising the E345R mutation was tested in cellular C1q binding assays in vitro using human healthy donor T cells. Anti-HIV gp120 antibody IgG1-b12-F405L was used as non-binding isotype control antibody (ctrl). […] T cells (2×10⁶ cells/well) were pre-incubated in polystyrene 96-well round-bottom plates with antibody dilution series (8× five-fold dilution starting at 15 μg/mL final assay concentration) for 15 min at 37° C. to allow the antibodies to bind to the T cells. Then, cells were cooled on ice, supplemented with NHS as a source of human C1q (20% NHS final assay concentration) and incubated on ice for 45 min. Cells were subsequently incubated on ice with FITC-labeled Rabbit anti-human C1q antibody (DAKO, Cat #F0254; 20 μg/mL) for 30 min and resuspended in FACS buffer with TO-PRO-3 (ThermoFisher, Cat #T3605; 1:5,000 dilution). C1q binding was determined by flow cytometry measuring the FITC signal on live cells.

[2] = biological target: T2, recombinant His-tagged human FcγRIa (human, UniProt P12314 16-288, limits assumed); assay: SPR (Biacore), His-tagged FcγRIa captured on anti-His chip, antibody in solution, resonance units against antibody concentration
T2 construct: Bought; captured on anti-His chip; not shown: His tag
Description: Biacore surface chips were covalently linked with anti-His antibody and coated with recombinant His-tagged Fc receptors (A) FcγRIa, (B) FcγRIIa-H, (C) FcγRIIa-R, (D) FcγRIIb, (E) FcγRIIIa-F, or (F) FcγRIIIa-V. The anti-HIV-gp120 antibody IgG1-b12 (ctrl) was included as a reference. Shown are absolute resonance units as determined by Biacore SPR after background subtraction (no Fc receptor flow-cell).
Binding of IgG1-CD27-A-P329R-E345R to human FcγR variants was analyzed using a Biacore surface plasmon resonance (SPR) system and compared to an anti-HIV gp120 antibody IgG1-b12 (ctrl). Biacore Series S Sensor Chips CM5 (Cytiva, Cat #29104988) were covalently coated with anti-His antibody using amine-coupling and His capture kits (Cytiva, Cat #BR100050 and Cat #29234602) according to the manufacturer's instructions. […] After three cycles of buffer, antibody samples were injected for 36 cycles to generate binding curves using antibody ranges of 0-3,000 nM for FcγRI and 0-10,000 nM for the other FcγRs. Each sample that was analyzed on an FcR-coated surface (Active Surface) was also analyzed on a parallel flow-cell without FcR (Reference Surface), which was used for background correction. Dissociation from the anti-His-coated surface was performed by regeneration of the surface using 10 mM Glycine-HCl pH 1.5 (Cytiva, Cat #BR100354). […]

T1 sequence (P02745 23-245 limits assumed, chain 1 of 3): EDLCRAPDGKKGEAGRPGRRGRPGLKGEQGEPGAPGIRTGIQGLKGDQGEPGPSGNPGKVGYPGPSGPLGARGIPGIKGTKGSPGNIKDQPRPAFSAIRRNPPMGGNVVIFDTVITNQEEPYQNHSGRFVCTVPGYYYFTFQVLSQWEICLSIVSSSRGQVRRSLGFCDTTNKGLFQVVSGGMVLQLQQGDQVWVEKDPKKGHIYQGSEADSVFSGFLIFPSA
T1 sequence (P02746 28-253 limits assumed, chain 2 of 3): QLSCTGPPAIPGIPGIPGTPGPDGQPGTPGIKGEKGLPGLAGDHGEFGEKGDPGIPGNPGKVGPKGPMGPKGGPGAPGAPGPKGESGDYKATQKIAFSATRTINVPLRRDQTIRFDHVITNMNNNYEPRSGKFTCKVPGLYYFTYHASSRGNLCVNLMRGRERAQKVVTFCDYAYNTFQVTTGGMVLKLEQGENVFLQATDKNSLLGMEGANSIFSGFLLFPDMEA
T1 sequence (P02747 29-245 limits assumed, chain 3 of 3): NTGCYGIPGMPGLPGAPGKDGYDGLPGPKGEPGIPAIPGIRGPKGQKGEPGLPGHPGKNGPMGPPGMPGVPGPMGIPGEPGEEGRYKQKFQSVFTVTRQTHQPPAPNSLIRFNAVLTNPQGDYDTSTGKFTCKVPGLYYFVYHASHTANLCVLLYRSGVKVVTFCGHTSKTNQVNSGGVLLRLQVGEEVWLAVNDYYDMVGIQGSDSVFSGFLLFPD
T2 sequence (P12314 16-288 limits assumed): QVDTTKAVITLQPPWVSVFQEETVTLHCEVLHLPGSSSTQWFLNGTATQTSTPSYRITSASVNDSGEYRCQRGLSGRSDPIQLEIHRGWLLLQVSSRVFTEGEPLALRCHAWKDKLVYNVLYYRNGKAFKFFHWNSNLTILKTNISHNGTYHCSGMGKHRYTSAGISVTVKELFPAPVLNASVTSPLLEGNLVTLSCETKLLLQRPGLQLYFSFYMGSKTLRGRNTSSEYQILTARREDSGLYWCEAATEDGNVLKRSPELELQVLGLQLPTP

binding result [1]: no binding (tested: 15 µg/mL)
binding result [2]: binds
B1: IgG1-CD27-A-P329R-E345R (antibody)
heavy: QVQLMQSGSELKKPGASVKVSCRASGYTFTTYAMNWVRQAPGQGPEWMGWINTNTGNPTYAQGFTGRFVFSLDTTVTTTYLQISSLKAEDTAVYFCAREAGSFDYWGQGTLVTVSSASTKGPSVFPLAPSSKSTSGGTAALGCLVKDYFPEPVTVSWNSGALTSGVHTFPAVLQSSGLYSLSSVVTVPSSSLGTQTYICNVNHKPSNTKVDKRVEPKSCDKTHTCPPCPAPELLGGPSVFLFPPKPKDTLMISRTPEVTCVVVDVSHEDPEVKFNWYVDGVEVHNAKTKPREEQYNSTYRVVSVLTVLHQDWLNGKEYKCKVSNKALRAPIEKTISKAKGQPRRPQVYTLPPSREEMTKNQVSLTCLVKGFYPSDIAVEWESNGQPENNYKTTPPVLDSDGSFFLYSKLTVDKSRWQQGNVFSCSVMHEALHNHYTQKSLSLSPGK
light: QSALTQPASVSGSPGQSITISCTGTSSDVYYYNYVSWYQQHPGRAPKLVIYDVSNRPSGVSNRFSGSKSGNTASLTISGLRAEDEADYYCSSYTVNRVWVFGGGTKLTVLGQPKAAPSVTLFPPSSEELQANKATLVCLISDFYPGAVTVAWKADSSPVKAGVETTTPSKQSNNKYAASSYLSLTPEQWKSHRSYSCQVTHEGSTVEKTVAPTECS
notes: also called IgG1-CD27-A-E345R-P329R
